Reference: publication PMC5836512

Experiments:
Cul1-Rbx1 (Homo sapiens) = Cul1-Rbx1 (Homo sapiens) (UniProt Q13616); conditions: cited from earlier work
^3xFLAGpIκBα = ^3xFLAGpIκBα (UniProt P25963); assay: co-IP
Sequence of ^3xFLAGpIκBα (P25963 whole entry): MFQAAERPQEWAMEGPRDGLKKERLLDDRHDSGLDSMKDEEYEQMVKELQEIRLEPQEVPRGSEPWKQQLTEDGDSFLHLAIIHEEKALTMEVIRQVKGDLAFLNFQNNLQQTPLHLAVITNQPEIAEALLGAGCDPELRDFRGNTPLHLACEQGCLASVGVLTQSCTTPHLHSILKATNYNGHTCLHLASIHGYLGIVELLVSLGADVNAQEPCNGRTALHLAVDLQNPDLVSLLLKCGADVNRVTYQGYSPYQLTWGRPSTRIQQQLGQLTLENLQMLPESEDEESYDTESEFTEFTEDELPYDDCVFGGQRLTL

Sequence of Dcn1 (Q96GG9 whole entry): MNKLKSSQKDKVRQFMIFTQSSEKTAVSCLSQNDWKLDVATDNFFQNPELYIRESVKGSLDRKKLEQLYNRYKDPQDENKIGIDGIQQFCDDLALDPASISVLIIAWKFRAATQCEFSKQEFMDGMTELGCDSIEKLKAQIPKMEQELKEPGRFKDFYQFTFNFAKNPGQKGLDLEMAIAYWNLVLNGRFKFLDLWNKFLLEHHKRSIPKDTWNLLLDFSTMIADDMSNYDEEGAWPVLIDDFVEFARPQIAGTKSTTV

Substance	Kd (Cul1-Rbx1 (Homo sapiens))	koff (^3xFLAGpIκBα)
Dcn1 (from UniProt Q96GG9)	1800 nM	–
β-TrCP (from UniProt Q9Y297 1-605) (natural protein)	–	3.3e-05 s⁻¹
